Assay results: patent publication US20170065725A1 (published 2017)
Read-outs that look alike come from different tables or passages of the source.

B1: G22C rhTSH (TSH G22C (alpha)) (ligand)
alpha: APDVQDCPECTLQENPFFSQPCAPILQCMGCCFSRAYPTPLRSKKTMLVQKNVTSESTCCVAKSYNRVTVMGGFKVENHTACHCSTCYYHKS
beta: FCIPTEYTMHIERRECAYCLTINTTICAGYCMTRDINGKLFLPKYALSQDVCTYRDFIYRTVEIPGCPLHVAPYFSYPVALSCKCGKCNTDYSDCIHEAIKTNYCTKPQKSYLVGFSV
modifications: Alpha Cys22 may carry a cap after expression; whether the assayed sample was capped is not stated. N-glycans at alpha Asn52, Asn78 and beta Asn23.
notes: Cysteine mutant without PEG, produced in CHO cells; also called alphaG22C TSH
B2: 40 kD 4-arm PEG G22C (ligand)
alpha: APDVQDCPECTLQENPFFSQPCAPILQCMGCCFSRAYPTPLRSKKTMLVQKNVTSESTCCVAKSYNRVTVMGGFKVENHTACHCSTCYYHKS
beta: FCIPTEYTMHIERRECAYCLTINTTICAGYCMTRDINGKLFLPKYALSQDVCTYRDFIYRTVEIPGCPLHVAPYFSYPVALSCKCGKCNTDYSDCIHEAIKTNYCTKPQKSYLVGFSV
modifications: Chain 1 (alpha) pos 22: Cys carrying a 40 kD 4-arm (branched) cysteine-reactive PEG, written C. N-glycans at alpha Asn52, Asn78 and beta Asn23.
B3: 40 kD 2-arm PEG G22C (ligand)
alpha: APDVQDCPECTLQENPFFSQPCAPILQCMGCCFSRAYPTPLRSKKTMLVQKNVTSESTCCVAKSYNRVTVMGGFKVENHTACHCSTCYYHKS
beta: FCIPTEYTMHIERRECAYCLTINTTICAGYCMTRDINGKLFLPKYALSQDVCTYRDFIYRTVEIPGCPLHVAPYFSYPVALSCKCGKCNTDYSDCIHEAIKTNYCTKPQKSYLVGFSV
modifications: Chain 1 (alpha) pos 22: Cys carrying a 40 kD 2-arm (branched) cysteine-reactive PEG, written C. N-glycans at alpha Asn52, Asn78 and beta Asn23.
B4: 40 kD linear G22C (PEGylated Cys-mutant TSH) (ligand)
alpha: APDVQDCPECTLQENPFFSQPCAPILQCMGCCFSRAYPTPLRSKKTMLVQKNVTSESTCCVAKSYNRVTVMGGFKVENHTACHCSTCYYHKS
beta: FCIPTEYTMHIERRECAYCLTINTTICAGYCMTRDINGKLFLPKYALSQDVCTYRDFIYRTVEIPGCPLHVAPYFSYPVALSCKCGKCNTDYSDCIHEAIKTNYCTKPQKSYLVGFSV
modifications: Chain 1 (alpha) pos 22: Cys carrying a 40 kD linear cysteine-reactive PEG, written C. N-glycans at alpha Asn52, Asn78 and beta Asn23.
notes: also called 40 KD G22C
B5: N-terminal mono-PEGylated rhTSH with 40 kD PEG (ligand)
alpha: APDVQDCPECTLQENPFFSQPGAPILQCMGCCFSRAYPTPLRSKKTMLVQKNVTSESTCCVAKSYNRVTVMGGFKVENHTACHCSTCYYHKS
beta: FCIPTEYTMHIERRECAYCLTINTTICAGYCMTRDINGKLFLPKYALSQDVCTYRDFIYRTVEIPGCPLHVAPYFSYPVALSCKCGKCNTDYSDCIHEAIKTNYCTKPQKSYLVGFSV
modifications: One 40 kD aldehyde PEG on an N-terminal amine (alpha Ala1 or beta Phe1; which subunit is not stated). N-glycans at alpha Asn52, Asn78 and beta Asn23. None is carried by the letters.
notes: also called 40 kD N-terminal
B6: Recombinant human TSH (rhTSH), THYROGEN Thyroid Stimulating Hormone (ligand)
alpha: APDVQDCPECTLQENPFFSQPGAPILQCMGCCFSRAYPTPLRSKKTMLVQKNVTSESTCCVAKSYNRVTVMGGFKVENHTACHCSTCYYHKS
beta: FCIPTEYTMHIERRECAYCLTINTTICAGYCMTRDINGKLFLPKYALSQDVCTYRDFIYRTVEIPGCPLHVAPYFSYPVALSCKCGKCNTDYSDCIHEAIKTNYCTKPQKSYLVGFSV
modifications: N-linked glycans at alpha Asn52 and Asn78 and beta Asn23; not carried by the letters.
notes: also called TSH control; control TSH; copies: 1 + 1

Key:
[1] = biological target: T1, porcine TSH receptor (immobilized, TSH Receptor Autoantibody 2nd Generation ELISA kit, RSR Limited) (porcine, UniProt Q8SPP9 22-764, limits assumed); assay: competition ELISA; inhibition of biotinylated rhTSH binding to immobilized porcine TSH receptor
T1 construct: Bought kit plates; the construct is not described
Method: (§1) Purified PEGylated conjugates were analyzed by in vitro porcine TSH receptor binding assay using the TSH Receptor Autoantibody 2nd Generation ELISA kit from RSR Limited (Kronus, Star, Id.). Instead of using the biotinylated human monoclonal autoantibody to the TSH receptor provided by the kit, we biotinylated Thyrogen® (rhTSH) to use for competitive inhibition of binding to TSH receptor. Binding of biotinylated rhTSH to immobilized porcine TSH receptor was inhibited by either rhTSH control or PEGylated rhTSH conjugates and IC₅₀ values were measured.
(§2) Thyrogen® was biotinylated with 1.7 to 1.8 biotins per protein using the ChromaLink™ Biotin Labeling Reagent according to the manufacturer's protocol (QED Bioscience Inc., San Diego, Calif.) and buffer exchanged into 50 mM sodium phosphate, 150 mM sodium chloride pH 7.0 with a Zeba™ Desalt Spin Column (Thermo Scientific, Rockford, Ill.). In vitro measurement of receptor binding was performed by competition of biotinylated Thyrogen® and PEG-rhTSH conjugate for binding to porcine TSH receptor immobilized onto 96-well plates supplied with the TSH Receptor Autoantibody 2nd Generation ELISA kit from RSR Limited (Kronus, Star, Id.). PEG-rhTSH conjugates were serially diluted 1:5 from 16 μM to 41 pM in assay buffer (100 mM HEPES pH 7.5, 20 mM EDTA, 1% BSA, 0.5% Triton X-100) and mixed 1:1 with biotinylated Thyrogen® diluted 1000-fold in assay buffer. The mixture was added to each receptor-coated well and incubated at 25° C. for 25 minutes. Unbound rhTSH was washed away and streptavidin peroxidase was added at 25° C. for 20 minutes according to the RSR Limited ELISA protocol to determine the amount of biotinylated Thyrogen® bound to the plate. The plate was then washed three times to remove excess unbound streptavidin peroxidase and then tetramethylbenzidine (TMB) was added to each well and incubated in the dark at 25° C. for 30 minutes. The reaction which was quenched with 0.5M sulfuric acid stop buffer and the absorbance of each well was read at 450 nm using a SpectraMax® 340pc plate reader (Molecular Devices, Sunnyvale, Calif.). The data was fit using a sigmoidal dose response equation with GraphPad Prism software to generate IC₅₀ values.

[2] = biological target: T1, porcine TSH receptor (immobilized, TSH …); assay: as above; remark: listed apart in the source
Method: as §1, §2

[3] = biological target: T1, porcine TSH receptor (immobilized, TSH …); assay: in vitro TSH receptor binding assay (competition ELISA)

T1 sequence (Q8SPP9 22-764 limits assumed): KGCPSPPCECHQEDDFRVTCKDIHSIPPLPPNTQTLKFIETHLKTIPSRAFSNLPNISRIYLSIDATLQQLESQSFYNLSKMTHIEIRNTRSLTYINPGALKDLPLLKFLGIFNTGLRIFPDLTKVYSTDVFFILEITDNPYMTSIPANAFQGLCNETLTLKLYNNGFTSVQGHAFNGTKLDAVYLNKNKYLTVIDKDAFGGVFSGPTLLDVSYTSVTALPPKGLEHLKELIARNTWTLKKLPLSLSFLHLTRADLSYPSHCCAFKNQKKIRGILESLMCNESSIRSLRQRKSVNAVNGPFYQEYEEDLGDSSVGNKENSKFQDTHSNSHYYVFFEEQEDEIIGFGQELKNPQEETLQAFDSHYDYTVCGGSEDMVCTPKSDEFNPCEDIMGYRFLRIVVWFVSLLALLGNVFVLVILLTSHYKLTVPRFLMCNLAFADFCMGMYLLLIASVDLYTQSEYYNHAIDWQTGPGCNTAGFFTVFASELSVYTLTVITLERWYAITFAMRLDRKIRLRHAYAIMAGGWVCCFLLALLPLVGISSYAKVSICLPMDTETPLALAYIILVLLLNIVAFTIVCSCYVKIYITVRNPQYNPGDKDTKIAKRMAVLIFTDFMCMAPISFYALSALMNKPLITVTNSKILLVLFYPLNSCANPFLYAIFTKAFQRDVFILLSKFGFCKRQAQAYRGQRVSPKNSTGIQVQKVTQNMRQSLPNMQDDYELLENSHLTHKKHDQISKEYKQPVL

| Binder | IC50 [1] [nM] | fold change (IC50 against rhTSH) [1] [fold] | IC50 [2] [nM] | fold change (IC50 against rhTSH) [2] [fold] | fold decrease of receptor binding affinity against rhTSH control [3] [fold] |
| --- | --- | --- | --- | --- | --- |
| B1 | 41.6 | 1.5 |  |  |  |
| B2 | 743 | 26.5 |  |  |  |
| B3 | 417 | 14.9 |  |  |  |
| B4 | 248 | 8.9 |  |  |  |
| B5 | 319 | 11.4 | 397 | 10.8 | 11.1 |
| B6 | 28 | 1 | 36.7 | 1 |  |
